One block for each molecule: values may come before it.
Tests used:
integrin α3β1 = integrin α3β1 (UniProt P26006); experiment: cell-based or functional assay
integrin α6β4 = integrin α6β4 (UniProt P23229); experiment: cell-based or functional assay
murine CD151 = biological target: T1, murine CD151 (murine, UniProt O35566 1-253); experiment: Western blot of murine lung, pancreas and colon tissue lysates (10 µg total protein), non-reductive conditions
T1 construct: Endogenous protein in mouse tissue lysates on a Western blot; also called murine receptor
T1 sequence (looked up): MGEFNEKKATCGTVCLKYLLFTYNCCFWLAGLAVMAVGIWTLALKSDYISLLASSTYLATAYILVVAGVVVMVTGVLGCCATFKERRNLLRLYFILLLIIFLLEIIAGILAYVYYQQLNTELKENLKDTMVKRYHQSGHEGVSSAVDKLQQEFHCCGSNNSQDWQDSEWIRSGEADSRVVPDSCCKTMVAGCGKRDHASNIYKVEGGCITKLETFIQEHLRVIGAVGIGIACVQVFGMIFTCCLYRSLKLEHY
Description: The specificity of the TS151 and TS151r antibodies was evaluated by Western blot. Lysates of human and murine lung, pancreas and colon tissues (Biochain, 10 μg of total proteins) and also increasing amounts of HT-29 cell lysate (10, 20 and 50 μg of total proteins) were placed on a 4-12% acrylamide gel (BioRad). After electrophoresis (non-reductive conditions), the proteins were transferred onto nitrocellulose membranes. The transfer membranes were then incubated with the purified TS151 and TS151r antibodies and then with a rabbit anti-mouse Ig polyclonal antibody coupled to peroxidase (GE Healthcare) before ECL-type visualisation.

Chain of integrin α6β4 (P23229 24-1130 limits assumed, chain 1 of 2): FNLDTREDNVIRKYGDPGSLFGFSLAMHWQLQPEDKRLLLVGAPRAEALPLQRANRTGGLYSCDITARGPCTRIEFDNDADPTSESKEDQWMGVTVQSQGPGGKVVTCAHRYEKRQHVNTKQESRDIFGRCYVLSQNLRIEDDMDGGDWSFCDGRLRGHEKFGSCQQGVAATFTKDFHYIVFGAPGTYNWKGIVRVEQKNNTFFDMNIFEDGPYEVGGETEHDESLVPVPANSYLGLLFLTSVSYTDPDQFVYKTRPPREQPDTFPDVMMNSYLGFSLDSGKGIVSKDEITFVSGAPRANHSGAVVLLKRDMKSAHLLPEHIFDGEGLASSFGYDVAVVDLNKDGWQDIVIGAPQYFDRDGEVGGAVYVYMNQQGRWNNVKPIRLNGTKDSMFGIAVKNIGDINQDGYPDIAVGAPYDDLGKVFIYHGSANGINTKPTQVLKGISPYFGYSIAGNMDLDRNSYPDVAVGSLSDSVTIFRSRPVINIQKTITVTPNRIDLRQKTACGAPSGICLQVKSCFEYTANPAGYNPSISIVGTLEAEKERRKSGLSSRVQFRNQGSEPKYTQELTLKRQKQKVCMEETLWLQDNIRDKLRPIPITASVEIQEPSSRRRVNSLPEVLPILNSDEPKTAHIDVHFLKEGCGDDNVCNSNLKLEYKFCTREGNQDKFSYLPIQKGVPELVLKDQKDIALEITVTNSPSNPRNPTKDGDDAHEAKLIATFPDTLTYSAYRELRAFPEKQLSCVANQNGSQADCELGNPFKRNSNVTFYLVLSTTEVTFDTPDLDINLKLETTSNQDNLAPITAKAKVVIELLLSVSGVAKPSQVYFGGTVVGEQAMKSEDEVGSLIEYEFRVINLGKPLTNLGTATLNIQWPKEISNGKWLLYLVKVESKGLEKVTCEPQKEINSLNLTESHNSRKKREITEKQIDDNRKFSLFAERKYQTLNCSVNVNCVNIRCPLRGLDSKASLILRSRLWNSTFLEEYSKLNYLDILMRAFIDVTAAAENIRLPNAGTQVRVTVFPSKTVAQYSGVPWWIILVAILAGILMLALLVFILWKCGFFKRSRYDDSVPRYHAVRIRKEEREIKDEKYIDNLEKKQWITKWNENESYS
Chain of integrin α6β4 (P16144 28-1822 limits assumed, chain 2 of 2, further chain): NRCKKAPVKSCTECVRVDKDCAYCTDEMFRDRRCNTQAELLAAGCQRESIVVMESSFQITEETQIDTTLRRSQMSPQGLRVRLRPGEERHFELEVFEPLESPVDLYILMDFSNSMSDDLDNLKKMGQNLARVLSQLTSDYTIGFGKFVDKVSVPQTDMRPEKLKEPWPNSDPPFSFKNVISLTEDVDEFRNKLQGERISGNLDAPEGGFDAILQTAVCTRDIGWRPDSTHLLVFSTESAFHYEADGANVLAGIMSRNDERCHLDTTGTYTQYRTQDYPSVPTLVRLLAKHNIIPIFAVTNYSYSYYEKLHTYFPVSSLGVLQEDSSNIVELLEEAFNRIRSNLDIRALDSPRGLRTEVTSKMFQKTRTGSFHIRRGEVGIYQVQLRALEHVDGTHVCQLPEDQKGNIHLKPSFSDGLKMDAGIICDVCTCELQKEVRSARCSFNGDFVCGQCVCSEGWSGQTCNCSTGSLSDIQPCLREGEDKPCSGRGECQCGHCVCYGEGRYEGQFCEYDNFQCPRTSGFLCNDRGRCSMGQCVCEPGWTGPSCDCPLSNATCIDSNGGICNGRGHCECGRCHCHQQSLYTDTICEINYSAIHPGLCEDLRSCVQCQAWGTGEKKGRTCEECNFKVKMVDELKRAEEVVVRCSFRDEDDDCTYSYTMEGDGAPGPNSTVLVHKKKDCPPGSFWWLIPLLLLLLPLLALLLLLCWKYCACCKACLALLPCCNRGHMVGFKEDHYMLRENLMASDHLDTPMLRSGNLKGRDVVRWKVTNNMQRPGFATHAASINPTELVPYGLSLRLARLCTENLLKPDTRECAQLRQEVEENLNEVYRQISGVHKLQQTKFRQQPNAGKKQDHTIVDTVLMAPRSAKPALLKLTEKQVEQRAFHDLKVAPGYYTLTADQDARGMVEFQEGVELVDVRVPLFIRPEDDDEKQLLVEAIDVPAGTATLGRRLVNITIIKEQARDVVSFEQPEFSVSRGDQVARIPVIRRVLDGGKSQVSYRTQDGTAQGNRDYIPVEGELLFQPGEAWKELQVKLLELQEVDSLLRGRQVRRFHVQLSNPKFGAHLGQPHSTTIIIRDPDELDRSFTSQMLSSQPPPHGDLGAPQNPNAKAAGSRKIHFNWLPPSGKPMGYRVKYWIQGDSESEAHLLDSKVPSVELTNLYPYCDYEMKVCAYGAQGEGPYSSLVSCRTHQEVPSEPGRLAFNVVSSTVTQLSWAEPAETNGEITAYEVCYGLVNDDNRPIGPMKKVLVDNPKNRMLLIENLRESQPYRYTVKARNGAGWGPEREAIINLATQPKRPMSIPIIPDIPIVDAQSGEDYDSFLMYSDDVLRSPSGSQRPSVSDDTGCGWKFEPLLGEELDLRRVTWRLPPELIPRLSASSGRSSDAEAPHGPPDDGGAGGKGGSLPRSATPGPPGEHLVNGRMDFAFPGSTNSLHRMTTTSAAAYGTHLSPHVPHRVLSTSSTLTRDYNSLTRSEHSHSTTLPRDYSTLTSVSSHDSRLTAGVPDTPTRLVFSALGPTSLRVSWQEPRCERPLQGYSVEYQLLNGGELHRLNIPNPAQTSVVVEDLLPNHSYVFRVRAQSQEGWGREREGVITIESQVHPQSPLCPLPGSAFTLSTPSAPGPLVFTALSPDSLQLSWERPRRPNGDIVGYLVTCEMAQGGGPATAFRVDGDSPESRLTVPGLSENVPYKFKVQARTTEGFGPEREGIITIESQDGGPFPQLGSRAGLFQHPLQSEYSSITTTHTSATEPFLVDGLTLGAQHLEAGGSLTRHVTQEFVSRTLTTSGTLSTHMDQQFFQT
Chain of integrin α3β1 (P26006 33-1051, chain 1 of 2): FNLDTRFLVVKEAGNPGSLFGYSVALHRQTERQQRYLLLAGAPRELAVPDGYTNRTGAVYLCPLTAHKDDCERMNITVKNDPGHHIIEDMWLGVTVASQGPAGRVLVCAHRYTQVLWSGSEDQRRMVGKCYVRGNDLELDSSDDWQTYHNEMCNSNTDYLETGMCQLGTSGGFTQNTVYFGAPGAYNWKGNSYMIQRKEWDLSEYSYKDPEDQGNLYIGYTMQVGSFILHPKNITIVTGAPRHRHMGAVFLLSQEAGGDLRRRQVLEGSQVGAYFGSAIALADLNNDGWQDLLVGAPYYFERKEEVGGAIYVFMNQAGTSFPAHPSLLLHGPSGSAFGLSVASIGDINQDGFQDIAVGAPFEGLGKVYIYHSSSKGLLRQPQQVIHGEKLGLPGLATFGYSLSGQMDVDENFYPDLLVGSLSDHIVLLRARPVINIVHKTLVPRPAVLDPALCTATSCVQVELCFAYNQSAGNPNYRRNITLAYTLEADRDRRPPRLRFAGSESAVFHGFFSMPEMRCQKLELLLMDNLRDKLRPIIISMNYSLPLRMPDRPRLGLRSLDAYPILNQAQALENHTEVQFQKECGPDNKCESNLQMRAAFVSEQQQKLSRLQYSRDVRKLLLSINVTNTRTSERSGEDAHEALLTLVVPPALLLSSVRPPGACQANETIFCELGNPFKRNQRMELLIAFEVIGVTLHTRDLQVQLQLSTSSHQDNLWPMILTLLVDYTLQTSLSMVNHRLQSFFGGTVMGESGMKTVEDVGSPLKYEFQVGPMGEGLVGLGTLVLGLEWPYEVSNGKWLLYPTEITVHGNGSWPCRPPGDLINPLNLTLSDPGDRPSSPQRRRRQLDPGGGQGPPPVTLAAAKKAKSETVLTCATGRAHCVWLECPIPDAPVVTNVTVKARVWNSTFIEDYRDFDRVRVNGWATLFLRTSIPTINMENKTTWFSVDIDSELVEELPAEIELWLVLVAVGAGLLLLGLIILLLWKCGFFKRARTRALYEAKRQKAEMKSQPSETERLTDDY
Chain of integrin α3β1 (P05556 21-798, chain 2 of 2, further chain): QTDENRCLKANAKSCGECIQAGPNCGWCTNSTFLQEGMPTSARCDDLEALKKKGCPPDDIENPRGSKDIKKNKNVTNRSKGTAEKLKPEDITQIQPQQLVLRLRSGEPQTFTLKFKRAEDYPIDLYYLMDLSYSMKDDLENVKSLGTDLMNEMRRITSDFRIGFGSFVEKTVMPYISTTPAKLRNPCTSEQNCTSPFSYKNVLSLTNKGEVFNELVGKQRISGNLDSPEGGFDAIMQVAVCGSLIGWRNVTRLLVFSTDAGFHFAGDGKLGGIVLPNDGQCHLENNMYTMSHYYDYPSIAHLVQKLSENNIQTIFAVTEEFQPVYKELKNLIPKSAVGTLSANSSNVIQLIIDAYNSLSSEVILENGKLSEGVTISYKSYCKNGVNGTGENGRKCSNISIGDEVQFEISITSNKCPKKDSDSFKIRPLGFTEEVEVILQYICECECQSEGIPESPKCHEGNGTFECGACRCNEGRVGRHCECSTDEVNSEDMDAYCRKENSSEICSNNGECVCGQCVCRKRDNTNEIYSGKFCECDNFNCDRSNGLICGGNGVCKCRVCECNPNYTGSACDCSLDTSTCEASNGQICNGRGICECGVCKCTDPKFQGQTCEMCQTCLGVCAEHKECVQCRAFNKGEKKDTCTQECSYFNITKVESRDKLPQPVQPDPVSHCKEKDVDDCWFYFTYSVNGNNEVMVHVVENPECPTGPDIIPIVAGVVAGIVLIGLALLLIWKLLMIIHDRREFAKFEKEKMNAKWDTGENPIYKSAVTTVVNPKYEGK

Molecule: anti-integrin α3 antibody P1B5
inhibition of adhesion of A549 cells on laminin 5, 15 minutes (integrin α3β1): > 90%
inhibition of adhesion of A549 cells on laminin 5, 1 hour (integrin α3β1): 20%

Molecule: anti-integrin α6 antibody NKI-Go3
inhibition of adhesion of A549 cells on laminin 5 after 1 hour, NKI-Go3 in association with P1B5 (integrin α6β4): > 90%

Molecule: anti-integrin β4 antibody ASC-3
inhibition of adhesion of A549 cells on laminin 5 after 1 hour, ASC-3 in association with P1B5 (integrin α6β4): 70%

Second part, the molecule after the results:

binding result (murine CD151): no binding
B1: TS151r antibody (antibody, mouse IgG1, V domains shown)
VH: QVQLQQPGSVVVRPGASVKLSCKASGYTFTSSWMHWAKQRPGQGLEWIGQIHPNSGNTNYNEKFKVKATLTIDTSSSTAYVDLNSLTSGDSAVYYCARGDDAYYSGLYAMDYWGQGTSVTVSS
VL: DIVLTQSPASLAVSLGQRATISCRASQSVSTSRYSYMHWYQQIQGQPPKLLIKYASNLESGVPARFSGSGSGTDFTLNIHPVEEEDTATYHCQHSWEIPYTFGGGTTLEIK
notes: Murine monoclonal from a hybridoma

binding result (murine CD151): no binding
B2: TS151 antibody (antibody, mouse IgG1, V domains shown)
VH: QIQLVQSGPELKKPGETVKISCKASGYTFTDYSMHWVKQAPGKGLKWMGWINTETGEPTYTDDFKGRFAFSLETSANTAYLRINNLKNEDTATYFCARREYGNYYGMEYWGQGTSVTVSS
VL: DIVLTQSPASLAVSLGQRATISCRASQSVSTSTFSYIHWYQQKPGQPPKLLIKSASNLESGVPARFSGSGSGTDFTLTIHPVEEEDTATYFCQHSWEIPLTFGAGTKLELK
notes: Murine monoclonal from a hybridoma; also called anti-CD151 antibody TS151

— patent publication US20090324600A1 (PIERRE FABRE MEDICAMENT, published 2009)
